The source of these data is patent US20220372137A1 (OXFORD BIOTHERAPEUTICS, published 2022).

Assay [1] has as its target T1, human SLAMF6 expressed on the cell surface (Raji cells, human PBMCs, T cells) (human, UniProt Q96DU3 22-332).
T1 construct: Endogenous SLAMF6 on human cells; also called NTB-A; CD352
T1 sequence: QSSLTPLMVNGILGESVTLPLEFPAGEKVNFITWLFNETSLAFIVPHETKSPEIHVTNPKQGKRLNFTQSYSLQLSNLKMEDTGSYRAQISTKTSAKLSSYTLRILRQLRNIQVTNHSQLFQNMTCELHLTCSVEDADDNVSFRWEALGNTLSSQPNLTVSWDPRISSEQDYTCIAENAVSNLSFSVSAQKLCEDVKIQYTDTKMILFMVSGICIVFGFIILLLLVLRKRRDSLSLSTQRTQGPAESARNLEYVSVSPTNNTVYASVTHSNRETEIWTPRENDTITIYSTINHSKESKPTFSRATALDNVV
The assay is described as follows: flow cytometry on SLAMF6-expressing Raji cells, goat anti-mouse secondary antibody. The protocol: […] Raji cells were placed in each well of a 96 well plate and washed 1× with FACS buffer (DPBS, 2% FBS). The cells were pelleted by spinning for 5 min at 1200 rpm. The pellet was washed 1× with FACS buffer (DPBS, 2% FBS) and again pelleted by spinning for 5 min at 1200 rpm and resuspended in FACS buffer. The test antibody were diluted to 30 nM/l in FACS buffer and increasing amounts as shown in FIG. 4 added to each well which was incubated for 30 min on ice. The cells were then washed 1× with FACS buffer (DPBS, 2% FBS) and pelleted, washed and resuspended in FACS buffer. Secondary goat-anti-mouse antibody was diluted to 1 μg·ml and 100 μl added to each well the plate was incubated for 30 min on ice then washed 1× with FACS buffer (DPBS, 2% FBS). The cells were pelleted and resuspended in 200 ul FACS buffer. Samples were read using the Guava Easycyte Plus HT flow cytometer and results analysed using the Guava Cytosoft software suite.
Background: Flow cytometry measures light scatter and fluorescence of single cells or particles in a stream.

Assay [2] concerns the target T1, human SLAMF6 expressed on the cell …. Nature of the assay: cell-based or functional assay.
Assay [3] addresses T2, Antigen flowed over the chip in the Biacore experiment (SLAMF6, construct not stated) (Homo sapiens (Human), UniProt Q96DU3 22-226, limits assumed).
T2 sequence: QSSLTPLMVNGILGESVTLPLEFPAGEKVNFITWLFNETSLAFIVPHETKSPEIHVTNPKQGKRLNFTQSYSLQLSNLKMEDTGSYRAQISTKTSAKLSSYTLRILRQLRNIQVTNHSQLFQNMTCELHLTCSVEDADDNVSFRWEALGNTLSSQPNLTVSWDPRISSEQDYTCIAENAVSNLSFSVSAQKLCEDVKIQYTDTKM
Nature of the assay: SPR, Biacore T-200 at 25 °C; antibody captured on goat anti-human IgG, antigen flowed over. As to the method:
Flow cells 2, 3 and 4 of the CM5 chip were coated with maximum amounts 500 RU of goat anti-human IgG. Test Ab were captured on flow cells 2, 3 and 4. Flow cell 1 was kept blank and used for reference subtraction. Antigen was flowed over the chip. Binding of antigen to the antibodies was monitored in real time. From the observed kₒₙ and koff, KD was determined.
Background: SPR reads the build-up and loss of mass on a sensor chip optically.

Assay [4] has as its target T1, human SLAMF6 expressed on the cell …. The assay is described as follows: flow cytometry on human PBMCs pre-blocked with 300 nM SLAMF6 ECD-mIgG2a Fc fusion protein, goat anti-human IgG-RPE secondary antibody. As to the method:
Cryopreserved human PBMCs were thawed and washed once by suspension in FACS buffer (DPBS with 2% FCS) followed by centrifugation for 5 minutes at 1200 rpm to pellet cells and discarding of supernatant (same method used for subsequent washes). The cells were dispensed into a 96-well assay plate at 100,000 cells per well in FACS buffer before being washed once more. Cells were then blocked with SLAMF6 ECD-mIgG2a Fc fusion protein at 100 nM or 300 nM for 1 hr for SLAMF6 receptor blocking in 100 μl FACS buffer on ice for 1 hour before being washed. Humanized Hu_1B3 antibody or human IgG1 Isotype control at top concentration of 10 nM and a titration by serial dilution of 1 in 3, was then added to the blocked PBMCs and the cells were incubated for 1 hr on ice before being washed twice. The secondary antibody, goat anti-human-IgG-RPE (Southern Biotech, Ref: 2040-05) at a concentration of 1 μg/mL in FACS buffer, was then applied to the treated cells for 30 minutes on ice. […] Mean fluorescence intensity for the secondary antibody was determined for each sample using an Attune NxT Flow Cytometer (ThermoFischer Scientific) in a 96-well plate format according to industry standard protocols, and the raw data was analyzed using FlowJo analysis software.

B1: parental murine 1B3 antibody (antibody, V domains shown)
VH: QVQLKQSGAELVRPGTSVKVSCKASGYAFTNYLIEWVKQRPGQGLEWIGVINPGSGGTNYNEKFKDKATLTADKSSNTAYMQLSSLTSDDSAVYFCARRGWDYFDYWGQGTTLTVSS
VL: QIVLTQSPALMSTSPGEKVTMTCSASSSVSYIYWFQQKPGSSPKPWIYRTSNLASGVPARFSGSGSGTSYSLTISSMEAEDAATYYCQQWDNNPYTFGGGTKLEIK
notes: also called antibody 1B3; mouse 1B3
A word on the EC50 (read off the curve): it is the concentration giving half of the maximal effect. Higher therefore signals a need for much substance. As to B1, the “EC50 (read off the curve)” value in assay [1] is around 0.2 nM.

B2: humanised antibody Hu_1B3 (antibody, human IgG1, kappa, L234A L235A, V domains shown)
VH: QVQLVQSGAEVKKPGASVKVSCKASGYAFTNYLIEWVRQAPGQGLEWIGVINPGSGGTNYNEKFQGRVTLTADKSISTAYMELSRLRSDDTAVYYCARRGWDYFDYWGQGTLVTVSS
VL: DIQLTQSPSSLSASVGDRVTITCQASQDVSYIYWYQQKPGKAPKPWIYRTSNLATGVPSRFSGSGSGTDYTFTISSLQPEDIATYYCQQWDNNPYTFGQGTKLEIKR
notes: It was captured or detected with anti-human IgG and compared with a human IgG1 isotype control; also called humanised 1B3 antibody; humanized Hu_1B3 antibody
The Kd is the free concentration of one partner at which half of the binding sites on the other are occupied at equilibrium, for simple one-to-one binding. Low readings indicate tighter binding, high ones weaker binding. For orientation: koff means a measure of how fast the partners let go of each other. High values mean fast dissociation, low ones slow dissociation. Usually kon stands for the rate constant with which the complex forms. Low values mean slow association, high ones fast association. Take B2: in assay [2], the “Granzyme B release from activated T cells (plate-coated antibody plus OKT3, ELISA), EC50” value was determined as 0.51 µg/mL and the “upregulation of intracellular perforin in CD8+ T cells (flow cytometry), EC50” value amounted to 0.44 µg/mL. Further, in assay [3], the Ka turned out to be 5.8e+08 M⁻¹; the affinity, expressed as Kd, was 1.72 nM; the off-rate (koff) was 0.000932 s⁻¹; the kon came to 541000 M⁻¹ s⁻¹. In addition, the concentration giving a half-maximal response (EC50 (read off the curve)) in assay [4] was around 0.4 nM.
